Reference: PMC6720452, “Structural Basis for Recruitment of DAPK1 to the KLHL20 E3 Ligase” (Structure(London, England:1993), 2019)

Target: T1, KLHL20 Kelch domain (human, UniProt Q9Y2M5 303-605)
T1 construct: Kelch domain of human KLHL20, Uniprot Q9Y2M5 isoform 1, M303-E605; structure traced from residues 317 to 601; Used for SPR (amine-coupled) and crystallisation; also called untagged KLHL20 Kelch; source: E. coli BL21(DE3)R3-pRARE2, purified (nickel sepharose, size exclusion, anion exchange)
T1 sequence (looked up): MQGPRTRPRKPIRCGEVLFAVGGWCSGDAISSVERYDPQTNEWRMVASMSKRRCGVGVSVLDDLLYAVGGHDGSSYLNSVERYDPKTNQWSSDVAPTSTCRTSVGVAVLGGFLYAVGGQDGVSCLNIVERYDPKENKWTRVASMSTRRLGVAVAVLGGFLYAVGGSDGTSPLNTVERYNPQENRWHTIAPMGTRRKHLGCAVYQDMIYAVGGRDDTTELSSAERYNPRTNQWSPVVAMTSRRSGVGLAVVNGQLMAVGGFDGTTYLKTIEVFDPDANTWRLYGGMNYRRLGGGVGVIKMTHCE
Assay: crystal structure; KLHL20 Kelch domain 12 mg/mL with 3 mM DAPK1 peptide; sitting drop, 2 M sodium chloride, 0.1 M acetate pH 4.5, 20°C; 1.1 Å
Settings: both partners purified

binding result: binds
B1: 11-residue DAPK1 peptide (crystallization peptide) (peptide)
peptide: LGLPDLVAKYN
notes: also called LT1342; source: synthetic peptide, bought: LifeTein
